# From article PMC4756856 (Nucleic Acids Research, 2016)
# B1: TyrRSΔE2–4′ (TyrRSΔE2–4 splice variant of human tyrosyl-tRNA synthetase without the flexible linker aa343–360) (natural protein, UniProt P54577 1-528, looked up)
# chain: MGDAPSPEEKLHLITRNLQALDEEYLKVDAQFGGIDQRKIFTFAEKYLPALGYSKRVHLMNPMVPGLTGSKMSSSEEESKIDLLDRKEDVKKKLKKAFCEPGNVENNGVLSFIKHVLFPLKSEFVILRDEKWGGNKTYTAYVDLEKDFAAEVVHPGDLKNSVEVALNKLLDPIREKFNTPALKKLASAAYPEEVIPSRLDIRVGKIITVEKHPDADSLYVEKIDVGEAEPRTVVSGLVQFVPKEELQDRLVVVLCNLKPQKMRGVESQGMLLCASIEGINRQVEPLDPPAGSAPGEHVFVKGYEKGQPDEELKPKKKVFEKLQADFKISEECIAQWKQTNFMTKLGSISCKSLKGGNIS
# Biological target: the molecule itself
# Test: SEC-MALS
protein,measurement,value
B1,stoichiometry N,2
